Test results reported in the supplement of paper PMC10126150.
± gives the standard deviation of the averaged measurements.

System: ATP
Experiment: switch fluorescence ratio, 500 uM ATP over buffer (Cy3 cluster intensity, sum of 5 cycles each) (fold (ratio)); higher = stronger signal-on switching upon ATP binding; sequences stand for … in TCGTCGGCAGCGTCAGATGTGTATAAGAGACAGTTTTTTTTTTTTTTTTTTTTTTTTT…TC
Conditions: aptamer strand: ATP DNA aptamer (quencher-CACCTGGGGGAGTATTGCGGAGGAAGG + anchor), 100 nM annealed; ATP concentration: 500 uM
Method in brief: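 The fluorescence ratio divides summed target-cycle Cy3 intensity by summed buffer-cycle Cy3 intensity for each cluster and is averaged per switch-domain sequence. Cy3-labelled switching-strand clusters on a modified Illumina MiSeq flow-cell were annealed to 100 nM quencher-labelled ATP aptamer, then imaged in selection buffer and again after 15 min with 500 uM ATP at 22 °C. Five such cycles were run, with NaOH stripping and re-annealing between them, and clusters outside 100-1000 RFU were excluded.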
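Note: ATP exposure 15 min at 22 °C before imaging.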

Sequence	switch fluorescence ratio
CCGTCAACTA	1.96 ± 0.22
GCTATCACCA	1.31 ± 0.32
AGGGCAATGG	1.29 ± 0.38
CGTCCATTGA	1.03 ± 0.019
TTGTTCCTTT	0.9847 ± 0.0076
GGGGTGACGG	1.004 ± 0.0055
GAATGTGATA	0.984 ± 0.018
GAGGCGTGTG	0.985 ± 0.029
GAGATTTGGA	1.03 ± 0.029
GGGGTTTACT	1.01 ± 0.021
ATTGGTATCT	0.979 ± 0.014
AGCCAGGATG	1.104 ± 0.0047
GAGCGATGGT	1.12 ± 0.021
AATTGGGCGC	1.01 ± 0.011
GGTTTTGGGG	1.01 ± 0.026
CATTTAAAGC	1 ± 0.018
TTCAATTTGC	1.02 ± 0.033
CACTGGGGTT	0.988 ± 0.017
ACTTCATTTT	1.02 ± 0.012
CACTTTGGGG	0.971 ± 0.0062
ACGGCTGTTA	1.012 ± 0.0046
TTATATATGC	0.986 ± 0.028
TGGTATAGTC	1.001 ± 0.0059

Sequence	switch fluorescence ratio
TTTGGGCATT	1.04 ± 0.035
CCGCGGGTCG	1.046 ± 0.0013
GCTTAGTGGG	0.954 ± 0.013
AGGGGGTACA	1.01 ± 0.016
GGGGGCTCAG	0.9659 ± 0.0052
GCGAAGGCGT	0.9709 ± 0.0033
ATTTGGTGAC	0.9987 ± 0.0042
CTAATGAGTT	0.999 ± 0.03
GATAGGGTAT	0.986 ± 0.015
TTATCGGGTT	0.973 ± 0.036
TAGTAGCCTT	1.03 ± 0.022
GGTTGATGGG	0.999 ± 0.038
ACCATTAGCA	0.998 ± 0.022
ATAACGATCT	1.04 ± 0.022
TAAGCTGCCA	1.02 ± 0.015
CGGTTTGGTG	1.01 ± 0.029
TCGTTGGTTT	0.994 ± 0.021
AGGTTGTATC	1.01 ± 0.028
CAAGTGAATG	1.01 ± 0.017
AGGGTAGCGA	1.03 ± 0.017
TTTGAGGCAT	1.71 ± 1.2
GAAATGTGAG	0.9797 ± 0.0045
TTCAAAATAG	1.12 ± 0.15

Sequence	switch fluorescence ratio
TTTGCATTGT	1.03 ± 0.035
GACTTTTCTT	0.971 ± 0.033
ATATATTGCG	1.016 ± 0.0031
TTGTTGGGCC	1.01 ± 0.036
GAACGTTTGC	1.11 ± 0.017
ATTTGGGTAG	1.01 ± 0.062
GGATGCCAGT	0.998 ± 0.013
TATTAGGGTT	1.03 ± 0.045
CAATATTCTT	1.02 ± 0.027
CGGTATTTTT	1.02 ± 0.028
AGGGTCAATC	1.04 ± 0.05
GAATGGGTCC	1.01 ± 0.029
GCAGCTGTTT	1.02 ± 0.044
CATGATTTGA	1.011 ± 0.0092
ACTTTTTCGG	0.9909 ± 0.006
TTTCACTTTT	0.991 ± 0.032
GTATTTTATT	1.006 ± 0.0064
TACTGGATGA	0.991 ± 0.029
CAGGGTGAGA	1.04 ± 0.016
ACATGGGGA	1.002 ± 0.0018
CGAATGGGTT	0.965 ± 0.011
GTGGGATTAG	1 ± 0.028
AACTTGTTTT	1.02 ± 0.032

Sequence	switch fluorescence ratio
TCTAGGCGTC	1.07 ± 0.031
GGATATCAAG	1.01 ± 0.016
TTTTTTTCGG	1 ± 0.027
TGTGACAGTT	1.09 ± 0.1
TTACGTTGGG	0.997 ± 0.035
GGGGGTAAGG	0.987 ± 0.034
AAAGGAGATT	0.996 ± 0.028
GCTTCAGAAA	1 ± 0.066
TTTTAGGTAT	1.02 ± 0.038
CATGGCTAGT	1 ± 0.011
ATTGTTTGTT	1.01 ± 0.016
CCTAACTTAG	1.021 ± 0.0029
CCTGACTTTC	1.11 ± 0.045
TGAGTAACAG	0.981 ± 0.012
TTGTGGCAAG	1 ± 0.018
GCAGTGTACG	0.997 ± 0.0087
GGGGCAATAT	3.69 ± 1.9
GAGGGATATA	0.996 ± 0.043
AAGGGAATGA	0.987 ± 0.016
GGGAGTCAGC	1.012 ± 0.008
AAGGCTGTAC	1.71 ± 0.1
ATACCGGATT	1.01 ± 0.046
GGCTGGGTAC	1.12 ± 0.24

Sequence	switch fluorescence ratio
TCTTTATATG	0.9989 ± 0.0033
TAAATTTTGG	1.008 ± 0.0096
TGCCTATGGA	1 ± 0.014
TTTAGACGTT	1.02 ± 0.016
AGCACAAAAA	1.12 ± 0.096
AAATTGGGTT	0.9768 ± 0.0091
GGATTGGGTT	1.04 ± 0.069
GCGGGTGGAT	1.01 ± 0.053
GGATGCTTGT	1.009 ± 0.0092
CTTGCATTGA	1.08 ± 0.071
GATTGCCGAT	1 ± 0.034
TATAAAACGG	1.14 ± 0.045
CGGGGGGGGG	1.02 ± 0.054
AAAATAAGAG	1.009 ± 0.0037
TTTGTTTTGA	1.02 ± 0.027
AAAAACAAAA	1.04 ± 0.065
TGTGGCCCAC	0.989 ± 0.017
CGACATATCC	1.12 ± 0.027
GGCCAAGGGG	1.04 ± 0.027
GCTCAACGGT	0.9561 ± 0.0041
GACAATGTAC	4.02 ± 0.16
ATCGTAGATT	0.993 ± 0.016
TTGTGATGGC	1.03 ± 0.11

Sequence	switch fluorescence ratio
TGGATATGGG	1.01 ± 0.028
AACCCGGGAG	1.17 ± 0.2
AACTTAGTGG	0.996 ± 0.028
ATAGAGAGGT	1.01 ± 0.012
TTGGGAACGG	1.03 ± 0.034
AAGAAGGTCC	1.01 ± 0.019
TTTTAGGTTT	1.06 ± 0.16
CCAAGGGCTG	1.15 ± 0.19
AGTTTAAAAC	1.02 ± 0.0077
AGCGGGGGTG	1.02 ± 0.018
AGCTCGGCGC	1.02 ± 0.064
CGCGTGTCTG	1.022 ± 0.0039
ACGAAAACGC	1.36 ± 0.23
TTCTGCAGGG	0.997 ± 0.043
ATGGATATGG	1 ± 0.026
AACTACAGGC	1.18 ± 0.11
GATAGCTGGG	1 ± 0.014
GGGGGGTCTC	0.996 ± 0.029
TGCGAAGGGT	0.9856 ± 0.0046
CGTTGCGGTA	1.04 ± 0.026
GTGTGCACTG	0.996 ± 0.029
TGCCACTCCT	1.0495 ± 4.1e-05
TTTATCTTCG	1.04 ± 0.017

Sequence	switch fluorescence ratio
GTTGGGATTG	1.01 ± 0.013
GATATACCTT	1.15 ± 0.015
TTGAATTTCT	0.992 ± 0.016
TGTGGCAAAA	1.015 ± 0.01
CGTGGGGATA	1.031 ± 0.009
AGGCGGCCGT	0.9889 ± 0.0082
AGGAGGGGAT	1.02 ± 0.045
CCGTTGAGCG	1.03 ± 0.03
ACATGACAGA	1.08 ± 0.038
GCGGTTTCGG	0.994 ± 0.024
CCATTGTAAG	1.02 ± 0.05
TGGGGTTCTG	0.9832 ± 0.0022
GGCGAAGGGT	0.98 ± 0.012
ATACTCGTGG	1.01 ± 0.042
TCTAAGTGAG	1.02 ± 0.016
GGCCTAGGGA	1.01 ± 0.056
GGTTTAGGAA	1 ± 0.028
TTGGAAACCA	1.02 ± 0.015
TGACGGAGGC	1.06 ± 0.051
